Laboratory results as given in PMC6077200.

Biological target: nicotinic acetylcholine receptors containing subunits α7, α9 and α10 of monocytic U937 cells (human (endogenous in U937)) (UniProt P36544)

B1: purified human endogenous C-reactive protein (natural protein)
chain: QTDMSRKAFVFPKESDTSYVSLKAPLTKPLKAFTVCLHFYTELSSTRGYSIFSYATKRQDNEILIFWSKDIGYSFTVGGSEILFEVPEVTVAPVHICTSWESASGIVEFWVDGKPRVRKSLKKGYTVGAEASIILGQEQDSFGGNFEGSQSLVGDIGNVNMWDFVLSPDEINTIYLGGPFSPNVLNWRALKYEVQGEVFTKPQLWP
How did the IC50 of eCRP for inhibition of BzATP-induced (100 µM) IL-1β release from LPS-primed U937 cells (the paper says this corresponds to about 40 nM pentameric CRP) turn out when B1 was run?
The IC50 of eCRP for inhibition of BzATP-induced (100 µM) IL-1β release from LPS-primed U937 cells (the paper says this corresponds to about 40 nM pentameric CRP) was 4.9 µg/mL.
